Measured values reported in US20170145104A1 (Bristol-Myers Squibb, published 2017).
Where a chain is given by its changes, count along the chain named. Numbers in names are those of the source.

T1: human GITR, membrane bound (on activated human T cells and on 3A9-hGITR cells) (human, UniProt Q9Y5U5 26-241)
T1 construct: whole, on cells; the cell is named under assay; also called huGITR; TNFRSF18
T1 sequence (looked up): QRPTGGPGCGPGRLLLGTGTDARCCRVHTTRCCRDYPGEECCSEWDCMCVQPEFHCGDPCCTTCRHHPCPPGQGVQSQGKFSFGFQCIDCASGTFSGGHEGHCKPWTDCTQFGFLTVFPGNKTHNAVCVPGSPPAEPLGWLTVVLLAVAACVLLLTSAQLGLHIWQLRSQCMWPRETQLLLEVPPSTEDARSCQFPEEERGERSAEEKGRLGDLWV

B1: 28F3 VH CDR3 mutant M98A, D106E, M111L (antibody, V domains shown)
VH: QVQLVESGGGVVQPGRSLRLSCAASGFTFSSYGMHWVRQAPGKGLEWVAVIWYEGSNKYYADSVKGRFTISRDNSKNTLYLQMNSLRAEDTAVYYCARGGSAVRGEYYYGLDVWGQGTTVTVSS
VL: AIQLTQSPSSLSASVGDRVTITCRASQGISSALAWYQQKPGKAPKLLIYDASSLESGVPSRFSGSGSGTDFTLTISSLQPEDFATYYCQQFNSYPYTFGQGTKLEIK
notes: also called G3
B2: 28F3 VH CDR3 mutant M98A, M111F (antibody, V domains shown)
VH: B1 VH with E106D, L111F
VL: B1 VL
notes: also called G2
B3: 28F3 VH CDR3 mutant M98A, M111L (antibody, V domains shown)
VH: B1 VH with E106D
VL: B1 VL
notes: also called G1
B4: 28F3 VH CDR3 mutant M98F, D106E, M111L (antibody, V domains shown)
VH: B1 VH with A102F
VL: B1 VL
notes: also called B3
B5: 28F3 VH CDR3 mutant M98F, M111L (antibody, V domains shown)
VH: B1 VH with A102F, E106D
VL: B1 VL
notes: also called B1
B6: 28F3 VH CDR3 mutant M98I, D106E, M111L (antibody, V domains shown)
VH: B1 VH with A102I
VL: B1 VL
notes: also called D3
B7: 28F3 VH CDR3 mutant M98I, M111F (antibody, V domains shown)
VH: B1 VH with A102I, E106D, L111F
VL: B1 VL
notes: also called D2
B8: 28F3 VH CDR3 mutant M98I, M111L (antibody, V domains shown)
VH: B1 VH with A102I, E106D
VL: B1 VL
notes: also called D1
B9: 28F3 VH CDR3 mutant M98L, D106E, M111L (antibody, V domains shown)
VH: B1 VH with A102L
VL: B1 VL
notes: also called C3
B10: 28F3 VH CDR3 mutant M98L, M111F (antibody, V domains shown)
VH: B1 VH with A102L, E106D, L111F
VL: B1 VL
notes: also called C2
B11: 28F3 VH CDR3 mutant M98L, M111L (antibody, V domains shown)
VH: B1 VH with A102L, E106D
VL: B1 VL
notes: also called C1
B12: 28F3 VH CDR3 mutant M98Q, D106E, M111L (antibody, V domains shown)
VH: B1 VH with A102Q
VL: B1 VL
notes: also called E3
B13: 28F3 VH CDR3 mutant M98Q, M111F (antibody, V domains shown)
VH: B1 VH with A102Q, E106D, L111F
VL: B1 VL
notes: also called E2
B14: 28F3 VH CDR3 mutant M98Q, M111L (antibody, V domains shown)
VH: B1 VH with A102Q, E106D
VL: B1 VL
notes: also called E1
B15: 28F3 VH CDR3 mutant M98S, D106E, M111L (antibody, V domains shown)
VH: B1 VH with A102S
VL: B1 VL
B16: 28F3 VH CDR3 mutant M98S, M111F (antibody, V domains shown)
VH: B1 VH with A102S, E106D, L111F
VL: B1 VL
notes: also called F2
B17: 28F3 VH CDR3 mutant M98S, M111L (antibody, V domains shown)
VH: B1 VH with A102S, E106D
VL: B1 VL
notes: also called F1
B18: 28F3 VH CDR3 mutant M98V, D106E, M111L (antibody, V domains shown)
VH: B1 VH with A102V
VL: B1 VL
notes: also called A3
B19: 28F3 VH CDR3 mutant M98V, M111F (antibody, V domains shown)
VH: B1 VH with A102V, E106D, L111F
VL: B1 VL
notes: also called A2
B20: 28F3 VH CDR3 mutant M98V, M111L (antibody, V domains shown)
VH: B1 VH with A102V, E106D
VL: B1 VL
notes: also called A1
B21: 28F3 VH CDR3 mutant M98Y, D106E, M111L (antibody, V domains shown)
VH: B1 VH with A102Y
VL: B1 VL
notes: also called H3
B22: 28F3 VH CDR3 mutant M98Y, M111F (antibody, V domains shown)
VH: B1 VH with A102Y, E106D, L111F
VL: B1 VL
notes: also called H2
B23: 28F3 VH CDR3 mutant M98Y, M111L (antibody, V domains shown)
VH: B1 VH with A102Y, E106D
VL: B1 VL
notes: also called H1
B24: Non mutated 28F3 (control of the VH CDR3 mutant panel) (antibody, V domains shown)
VH: B1 VH with A102M, E106D, L111M
VL: B1 VL
notes: also called H6
B25: 28F3 VH CDR3 mutant M98A (antibody, V domains shown)
VH: B1 VH with E106D, L111M
VL: B1 VL
notes: also called F6
B26: 28F3 VH CDR3 mutant M98A, D106E (antibody, V domains shown)
VH: B1 VH with L111M
VL: B1 VL
notes: also called F5
B27: 28F3 VH CDR3 mutant M98A, D106E, M111F (antibody, V domains shown)
VH: B1 VH with L111F
VL: B1 VL
notes: also called F4
B28: 28F3 VH CDR3 mutant M98F (antibody, V domains shown)
VH: B1 VH with A102F, E106D, L111M
VL: B1 VL
notes: also called A6
B29: 28F3 VH CDR3 mutant M98F, D106E (antibody, V domains shown)
VH: B1 VH with A102F, L111M
VL: B1 VL
notes: also called A5
B30: 28F3 VH CDR3 mutant M98F, D106E, M111F (antibody, V domains shown)
VH: B1 VH with A102F, L111F
VL: B1 VL
notes: also called B4
B31: 28F3 VH CDR3 mutant M98I (antibody, V domains shown)
VH: B1 VH with A102I, E106D, L111M
VL: B1 VL
notes: also called C6
B32: 28F3 VH CDR3 mutant M98I, D106E (antibody, V domains shown)
VH: B1 VH with A102I, L111M
VL: B1 VL
notes: also called C5; M98I/D160E
B33: 28F3 VH CDR3 mutant M98L (antibody, V domains shown)
VH: B1 VH with A102L, E106D, L111M
VL: B1 VL
notes: also called B6
B34: 28F3 VH CDR3 mutant M98L, D106E (antibody, V domains shown)
VH: B1 VH with A102L, L111M
VL: B1 VL
notes: also called B5
B35: 28F3 VH CDR3 mutant M98L, D106E, M111F (antibody, V domains shown)
VH: B1 VH with A102L, L111F
VL: B1 VL
notes: also called C4
B36: 28F3 VH CDR3 mutant M98Q (antibody, V domains shown)
VH: B1 VH with A102Q, E106D, L111M
VL: B1 VL
notes: also called D6
B37: 28F3 VH CDR3 mutant M98Q, D106E (antibody, V domains shown)
VH: B1 VH with A102Q, L111M
VL: B1 VL
notes: also called D5
B38: 28F3 VH CDR3 mutant M98Q, D106E, M111F (antibody, V domains shown)
VH: B1 VH with A102Q, L111F
VL: B1 VL
notes: also called D4
B39: 28F3 VH CDR3 mutant M98S (antibody, V domains shown)
VH: B1 VH with A102S, E106D, L111M
VL: B1 VL
notes: also called E6
B40: 28F3 VH CDR3 mutant M98S, D106E (antibody, V domains shown)
VH: B1 VH with A102S, L111M
VL: B1 VL
notes: also called E5
B41: 28F3 VH CDR3 mutant M98V (antibody, V domains shown)
VH: B1 VH with A102V, E106D, L111M
VL: B1 VL
notes: also called H5
B42: 28F3 VH CDR3 mutant M98V, D106E (antibody, V domains shown)
VH: B1 VH with A102V, L111M
VL: B1 VL
notes: also called H4
B43: 28F3 VH CDR3 mutant M98V, D106E, M111F (antibody, V domains shown)
VH: B1 VH with A102V, L111F
VL: B1 VL
notes: also called A4
B44: 28F3 VH CDR3 mutant M98Y (antibody, V domains shown)
VH: B1 VH with A102Y, E106D, L111M
VL: B1 VL
notes: also called G6
B45: 28F3 VH CDR3 mutant M98Y, D106E (antibody, V domains shown)
VH: B1 VH with A102Y, L111M
VL: B1 VL
notes: also called G5

Biological target: T1, human GITR, membrane bound (on …)
Assay: FACS binding to 3A9-hGITR transfectant, Geo-MFI (PE); EC50 table beside the curves; unit from the axis

Row | Binder | EC50
1 | B1 | 62 nM
2 | B2 | 171 nM
3 | B3 | 187 nM
4 | B4 | 417 nM
5 | B5 | 51.8 nM
6 | B6 | 1.07 nM
7 | B7 | 1.33 nM
8 | B8 | 1.03 nM
9 | B9 | 1.22 nM
10 | B10 | 1.38 nM
11 | B11 | 0.674 nM
12 | B12 | 20.4 nM
13 | B13 | 16.6 nM
14 | B14 | 21.7 nM
15 | B15 | ~1250 nM
16 | B16 | 246 nM
17 | B17 | 60.3 nM
18 | B18 | 2.87 nM
19 | B19 | 3.7 nM
20 | B20 | 3.53 nM
21 | B21 | 183 nM
22 | B22 | 246 nM
23 | B23 | 620 nM

Biological target: T1, human GITR, membrane bound (on …)
Assay: as above
Remark: another data set of the same source

Row | Binder | EC50
24 | B24 | 0.334 nM
25 | B25 | 1.5 nM
26 | B26 | 0.401 nM
27 | B27 | 19.1 nM
28 | B28 | 0.797 nM
29 | B29 | 0.683 nM
30 | B30 | 54 nM
31 | B31 | 1.42 nM
32 | B32 | 0.349 nM
33 | B33 | 0.757 nM
34 | B34 | 0.311 nM
35 | B35 | 0.638 nM
36 | B36 | 1.44 nM
37 | B37 | 0.968 nM
38 | B38 | 3.33 nM
39 | B39 | 3.51 nM
40 | B40 | 2.29 nM
41 | B41 | 0.34 nM
42 | B42 | 0.58 nM
43 | B43 | 0.772 nM
44 | B44 | 1.68 nM
45 | B45 | 0.798 nM
